Reference: the domain aggregation screens of Martell et al. (2025)

Assay: soluble fraction after stress (log2 fold change); higher = more stays soluble; pooled small domains, quantitative proteomics
Details: stress: 50 degC
How it was run: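 Pooled custom libraries of small protein domains were each held under stress at 50°C. The read-out, high-throughput quantitative proteomics, tracked how much of each protein stayed soluble. This is reported as a base-two log fold change used to indicate aggregation propensity. Higher values mean more protein remains in solution.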

Sequence | soluble fraction (log2)
HMKALPSAEDVALARESGRVLSTVLQTRAETQQIDFHDDKGAVRSVTLPTTALRLLLDVLTEIGQGNAV | -0.23
HMKALRNQDVVVGKPLAMAVYDQHGVLLLGRGHVVISESQRQQLLERGFSIDAEQLGRLRAAIEATQRV | -0.378
HMKALYHQLVDLLKKRMESGMIPHDKLPSERELTAQYGVSRTTVRLALQELENTGYIYRRHGKGTFVSDI | -2.27
HMKANIGDQVFTQLKDQIINGEWRPGDRIPSEAQLIQLFGVSRGTVRQAVQKLAGEGLIVTRHGEGSFVQG | 0.096
HMKAQLQHIIGSNIKLARNTQGYTQEGLAERAEISVEHLKQVERGKKMLSVESLVNVANALQVSVDSLV | 0.0587
HMKAQVKSVLDDIPGIGQTRRKALMRYFKSLEKIREASVEELKEADAMNERAAQSVYAFFHK | -0.471
HMKAQVKSVLDEIPGVGPTRRKALMKHFTSIEEIKQAEFETLLEAEGMNRAAAQSVYDFFHN | -0.138
HMKDESQLVGAEGKAVTPLRPTGVALIGEKRLDVLTEGEFIPRNSDIIVSRVEGNKIIVKLKN | 0.177
HMKDHLRFEILSFAGDLRNGVVKTRQEFETIFAFYDKYEEIITALKVHNGYVDSEFDFIKEKFKELKSK | -1.92
HMKDLQAISERMEEIISFAKANDNEISLFIVQDIIKNKKTGIDEDLLNMALYQIKEQGIKVLPA | -0.0793
HMKDSIQIPNVVGMTIKDAQSQYGKSFSIIEQNRTESTKPAGTILEQTPAGGDTVSKRDNIIIRVVVSLG | 0.132
HMKDSKSALQEYALERKMGLPVYEVVDRSGPDHAPQFVIAVSLGEWRLEAKGASKRQAEQQAASLMLEEI | -0.353
HMKDYTIDDIINSKVEHPLGGYQSRFKVGEYEVSVVGGRQTNHGDFIHTFELAIFDKNNNFLRNLTPVTID | -0.0394
HMKEATTSPLDGIPGIGSKRKKALLSHFGSARSVARADIPDLMRVDGISRQVAETIYGWFHN | -0.179
HMKEDFPLLEQLRYTGEGADVTGTAEKMESIQALRSAADSGGFRATLGDIQQIPGGGLRFTLSLRGSR | 0.0335
HMKEDNPIVLINLQAKEGEWVFKGTGLPYVGKYHQHKNGEYMIGIGVLNLNHELKPDEIIIPNPNK | -0.109
HMKEEDYEVFMRLINVRGIGPKSALNILGVISGQEMIQAIENDDIKRLKSLPGIGAKTAGQIVLDLKGKFV | -0.649
HMKEFIPPVLDDVLKFFSGSLLPDWENQGRLFFSHYNSQGWRKGTGVQVTDWDSLANKWILDEKIKRDARS | -0.263
HMKEGTIPPVVNRTLSDAEFVLKSYGYELGRVSEQHSDMPKDIVIKQSPEAGTVADPGTRVDVVVSIGKA | 0.404
HMKEHDTLALRLTAILRKLNDGEKLVPRELAEEFNVGIRTIQRDLTERLSFLDLEKTNGAYSLPTRNL | -0.428
HMKEIIFRGIGEFILDYKSLVIEFLNKNNYANLSMDAPVDEVNKAVANNMLNEDFVTELLLFQRRVE | -1.2
HMKEILLITGKGLHSGQDDVYKSAQLSKLRYSVPEFIKSNLEISQLILSVETPLQKDGGDGALLIK | 0.13
HMKEILVGVEPLSKKQIIIKKGIKGRSDYIIFEKKNYGLPENLKPEEVSIEIALKIIDEKKKRKA | -1.23
HMKEIPTKKGDMLEIYEANGKYILKYPTFNITMPEVVKEIPKEAVDSYLAGKHDGEELINYANFGFWKS | -0.185
HMKEKDAYTSEILDTLKNAKLLVVEGTVYPLLTRLKNDGLLNYRWEESTSGPPRKYYGLTDEG | -0.445

Sequence | soluble fraction (log2)
HMKEKIIKEPYDLFTTDKIGQALEVQALLARQGIKVQRRVDGTKSTLFLENYTQSEKDQALLAVVRSGIV | 0.161
HMKEKPLWAIRITELREEHYFTQTDVSKALGIAQTTYAGYETGRHEPDFETMIKIADIYKVSLDYLIGR | -1.27
HMKELFETLPDVLDAKLLASALSISKAGAYQLLNRPDFPTLQVGGWKLVTKQKLALWMEQHTN | -3.21
HMKELFGQRLREQRLKQNLTLEQLAEKANLSPNYVGMVERGLKEPGLATIVKLLNGLNVSADTLL | -0.036
HMKELLTKQQREEILETVKTKTPKDFGYTAEHWTTGFLGKWIEEHYEVEYKSKTSLYLVFKKASFTYHKPG | 0.228
HMKELTARQIEILDFITNYEWRHGYWPSIRNIQVQFSYKSTNAVMGHLRALERKGAIERIPGQARTFRIH | -2.97
HMKEPFETMPDVMDAKQIAEALQISKAGAYNLLNSPDFPTLRIGGRKLVMKNELVEWLKSHTNRK | 0.274
HMKEPPTLEEIKNYFASKLSTELESEKFFNYFESNGWLVGGKTPMKNWQSAANNWLINMSKFN | -0.47
HMKEPQLGPVRKWSDQTGNFGIEAQFVKREGDNILLKRADQRTISIPLEKLSDADQEHLKQEEQKQAME | -0.138
HMKEQLEAYVNRLFADAALTIRNAEVRQEILQHALDRYDDLIASGKTEQEAYDETVSGIGDVSGLYEHK | -0.195
HMKETKVIHVHLIFKKTSRFFGSISAIYSEFTAEEIGITEETLRHKGLSDGVSFATKKAIIQQGVLIR | -1.67
HMKEVDSESAFAERGISEVWIPALQKMGILTLEALDAANPNKVFNDLGGMRKKLKIDAAMPTKDEVTAWIQ | 0.0238
HMKEVKPSDFFLSKLDEDHNLIEKFNALSSFKQKEFIEYIDSAKQEKTKHDRFEKIKPILLSNIGLNDKYR | 0.075
HMKEVVVPDYFLKQLQKNKKAFITFNNFSPSHKREYVEWITEAKTEETKNRRMKSAIEWMSEGKSRNWKYI | 0.0292
HMKFGETLIDLRKRNGLTQEELAAKLYVTRQAVSRWERGEVTPGIDMLKLIANVLNEPVAHLLDW | -0.977
HMKFNRPMSEILQEWENKLGTTSDAELAGLIGVVTMTINRWRKNETKPDLSALNRYDRIVNLVVNNIKQL | -0.432
HMKFPPELVEFIEGLSLLKPPLNYATVHRRAEKLAIKKGWASPSYSTVRNIIRKLSPALTTLAHEG | -2.15
HMKGAADPAIKQKVLDYLDTVEKAKSKEIAKAISEEKSAVDLAVKELAFEDKVEYLYITTTFVALKGKVA | -0.168
HMKGALQIAIEEGFNWNLDKKYWNIVQSTVIAKRLGLKTTSGLKEAIEGMGGEYKRTKKARGYLVPTFKD | -2.31
HMKGDYWIIDLDKNYQYAIISEPDRQYLWILSRSPNMDTQTLETLKEKIRSKGFDLTYLKQTL | -0.844
HMKGHQASTTWISERVKDIIKEDPTLGARKLQKRLEIHYNIELSYFKVWSGKNLQWMIFMVL | 0.022
HMKGSYTVKSGDNLWSIARKFYGGSGSTWTKIYSANKSTIESTARRYGRSSSDNGHWIYPGTVLVIP | 0.0541
HMKGVSFEEIERAVRTAQNPEADETAQQHAGMVFSRMEGNELFDKLVQSSSTIGKKITGLMDYYL | -0.0889
HMKGYIGESKARNIALKKAPGASITKFEFDKDDGIAVYEVELRKGIYEYELKINAVTGAIIEFEKDIE | -1.46
HMKHKYWEIKERIKKDILNEVYKKGESIPSERDLAGIYDVTRVTVQKAMAMLVQEGYIERIHGKGMFVLKN | -0.801

Sequence | soluble fraction (log2)
HMKHRFVVGEVLSIGKLQHEITLKTAQGERKFQLDKQDLPASIQDGAKVRAELNEAGRVIDVHPLK | 0.355
HMKHYMKITDISLQTRDKNRVNVSVDGKYRFSLDVFQVGELGLKVGREYTDEELTALEDESQFG | -1.41
HMKIATIELVKEAVKSKLGKFTKRDIMELVPSVGKTTIENMLKQLIGEGYIERHGKGRATFYVK | -0.56
HMKIDANTFTSIEKQLFVLLSKTPTPMGSIFVALAKEDKEAVWEVIHFLEAENRLIMNEDGTIQL | -1.39
HMKIDEVSFAYIERTLFSMLGKLPTPVNKVIATIGEEKKETIWEVIRFLESENKLITNEDGTLQL | -1.55
HMKIDNIIIYITGGVKKEGVYELPDGSRISDAIEQAEGLKANADTSSINLAYKLEDGMKIKIPLQGEN | -0.0298
HMKIDNPEYQKIMDMIPYFFQTRNYDEAIEALSYVIEQEPSFSEAYNKRATFYFMMGDFENSMKDIESTLA | -0.155
HMKIEEVIEKLKTDSIISRKEYEDIVRQINPNLSDRTIFWQLAKLQDMGVLQKIGQNSFHVRN | -0.26
HMKIERKGDESYLSFVERATSALSDGLIDYQQWGRAVVGEDLYSEENTRRIAKFFAQFIQNLEND | -1.9
HMKIKAKYTTDFGIRIYAPKPGKNYWRISYVDLDGKLRDTTATSEKTALDKSAEIEVLLRNN | -1.89
HMKILALETSAKAVSAAVSENGRILASGYQDTGLTHSRTLMPIVEHILKNTDLKLSDMDAIAVAVGPG | 0.211
HMKIMSLSERHQKILELLKVNGIVSVNSLSRQLNVSSVTIRKDLGLLEEKKLLYRSHGGAIQID | -3.08
HMKINYNEFLRRFLGEKEGDIIEMETGKRIGTHKGYWFHTIGQRKGLGLGGGPWFVIRKDIDENIIYVSHG | -1.06
HMKIPGIGDVYAILARVYSGPQFTWIEAGFPEDDTKAYSYLHTAIRKGSAIAILQAMRTSGALTPTIEKE | -0.444
HMKIPPIMFVRAIMVAGRQSMAIMDIEGVGTGIIVRSGYSFSNGEGKVVRIGPDKVTVNWSGKHLDLAPG | -0.615
HMKIPQFAVIKQYLEQQIKTAQWAPGRQIPTEQSLADTFSVSRMTARRAVQQLADAGLLERTQGSGTFVAD | -0.145
HMKISDTITEKILTDNNFSMELAKKIGIQQGSLLSSIRRNRDSRILRLWEAVMFYKEQGYTEEEIFTDY | -1.27
HMKISELAKKVIASGRVTQWAKHPHIYFVNGMRKVAIELDVNGVFSISMRYYPYDPADRELVENLIRGD | -2.53
HMKIVQHQLQLPVHVAGKFKGMFYKSDFVMSEDYDDDGNMILAVRLPLVDWNKFLKRTDNELSQYIKVTP | -0.858
HMKKALTAEQEARVRELYFRGINYYSANRYQDAIAEWRKVLAIDPNHEKAKNNIRQTLILLK | -0.257
HMKKDNLKKIKSIDEDIENELFKLGIYHFEQISIWSSKNAEWIENFLNLPNYVRANQWVEQAKILK | -1.47
HMKKDRKKMLKEGIVLFEKILRGMELSPTSEPLKKVLTSFNIQNKEDLYVKLGAGVISSEEVIKELKKK | 0.183
HMKKILIVTNRSAGMVVYTIPEEGIRREFTPGETKKIPFEELEKLAYLSGGRTLMENFLKIVDTETTEELG | -0.543
HMKKIYEEVSEAILTMIKNGTLKPGDKLLPVHQLAEQFQVGRSAVREALSALRAMGLIEMKQGEGTYVKNF | -0.462
HMKKKVDSENLLLDILKQMQPQASTNVLRKMLTNQRISVDDQIIHRAKHVVQEGQTVEIHPKP | 0.00763
